Assay [1] deals with acetylcholine receptor. The assay can be described thus: SPR, peptide at 10 uM over immobilized acetylcholine receptor. For orientation: Surface plasmon resonance follows binding to a sensor surface in real time, without labels.
For assay [2], the target named is acetylcholine receptor. The assay can be described thus: SPR, AchR immobilized on chip, peptide at 10 uM.

Take RWFYKK [6mer-2-135]: in assay [1], the Binding affinity (RU) is 124 RU.
On the same count and under the same terms, under RLFQRK [6mer-2-134] stands 148 RU.
The same measure, in the same setting: under RSISKK [6mer-2-119] stands 139 RU.
Molecule RLFTRK [6mer-2-21] gave a Binding affinity in assay [2] of 141 RU.
Molecule KSRCRK [6mer-2-7] showed a Binding affinity in assay [2] of 126 RU.
The molecule RQYTRK [6mer-2-13] registered a Binding affinity in assay [2] of 123 RU.
In turn, KLYLKR [6mer-2-46] yielded a Binding affinity in assay [2] of 153 RU.
On the same count and under the same terms, under RRYRKK [6mer-2-40] stands 153 RU; under RSQRKR [6mer-2-29], 142 RU.
For the molecule KVYSRK [6mer-2-3], the Binding affinity in assay [2] is 148 RU.
As to RVITKR [6mer-2-43], in assay [2], the Binding affinity stood at 146 RU.
Regarding KVQLRR [6mer-2-125], the Binding affinity (RU) in assay [1] was 142 RU.
Molecule RSILRR [6mer-2-18] returned a Binding affinity in assay [2] of 124 RU.
Molecule RWYLKR [6mer-2-2] showed a Binding affinity in assay [2] of 139 RU.
KVIRRK [6mer-2-27] returned a Binding affinity in assay [2] of 128 RU.
Regarding RWVSKR [6mer-2-5], in assay [2], the Binding affinity turned out to be 124 RU.
Still for that read-out and setting: the same measure for RWRYRK [6mer-2-39]: 137 RU.
With RRQCRK [6mer-2-120], the Binding affinity (RU) in assay [1] turned out to be 146 RU.
For RRRLKK [6mer-2-1], in assay [2], the Binding affinity was determined as 131 RU.
Still for that read-out and setting: under KSYQRK [6mer-2-31] stands 121 RU.
Same read-out and setting: under RQFQRK [6mer-2-12] stands 147 RU; under RVQTRR [6mer-2-20], 137 RU.
Still for that read-out and setting: under KQVQKR [6mer-2-25] stands 148 RU; under RQIRKK [6mer-2-22], 124 RU; under KQVRKR [6mer-2-15], 133 RU.
KLICRK [6mer-2-9] gave a Binding affinity in assay [2] of 139 RU.
RQFTKR [6mer-2-123] came in with a Binding affinity (RU) in assay [1] of 146 RU.
On the same count and under the same terms, the same measure for RLYLRK [6mer-2-127]: 136 RU.
Turning to RSFSKK [6mer-2-19], in assay [2], the Binding affinity is 135 RU.
In assay [1], KWFSRR [6mer-2-118] registered a Binding affinity (RU) of 135 RU.
With KLQRKK [6mer-2-116], the Binding affinity (RU) in assay [1] was 126 RU.
As for KGVCRR [6mer-2-16], the Binding affinity in assay [2] was found to be 121 RU.
In turn, RWRRKK [6mer-2-26] registered a Binding affinity in assay [2] of 121 RU.
Molecule RRLQKK [6mer-2-36] returned a Binding affinity in assay [2] of 131 RU.
For the molecule RWVTRR [6mer-2-17], the Binding affinity in assay [2] was 142 RU.
Same read-out and setting: under KSICRR [6mer-2-6] stands 122 RU.
The same measure, in the same setting: under KVFSKK [6mer-2-10] stands 124 RU.
In turn, KLYCKK [6mer-2-132] came in with a Binding affinity (RU) in assay [1] of 139 RU.
In assay [2], RRFRKK [6mer-2-48] gave a Binding affinity of 153 RU.
The molecule RGVCRR [6mer-2-130] displayed a Binding affinity (RU) in assay [1] of 122 RU.
KSVLRK [6mer-2-129] registered a Binding affinity (RU) in assay [1] of 139 RU.
Turning to RLRCRK [6mer-2-49], the Binding affinity in assay [2] was 154 RU.
On the same count and under the same terms, the same measure for RGRQKK [6mer-2-14]: 153 RU.
The same measure, in the same setting: the same measure for KLLYRK [6mer-2-37]: 148 RU.
Still for that read-out and setting: under KGIQRK [6mer-2-24] stands 141 RU; under KSVRRK [6mer-2-44], 145 RU.
KWQYRK [6mer-2-115]: the Binding affinity (RU) in assay [1] stood at 144 RU.
Turning to RRLCRK [6mer-2-32], the Binding affinity in assay [2] came to 139 RU.
The molecule KLQYRK [6mer-2-114] displayed a Binding affinity (RU) in assay [1] of 121 RU.
With RVITKK [6mer-2-122], in assay [1], the Binding affinity (RU) is 125 RU.
RWISRK [6mer-2-35]: in assay [2], the Binding affinity was 148 RU.
Consider KVFRRK [6mer-2-34], for which the Binding affinity in assay [2] is 124 RU.
Still for that read-out and setting: the same measure for RQFYKK [6mer-2-30]: 139 RU.
The molecule KRRLKK [6mer-2-133] displayed a Binding affinity (RU) in assay [1] of 145 RU.
Still for that read-out and setting: under KRYTRK [6mer-2-117] stands 148 RU.
In assay [2], RSYYKR [6mer-2-38] yielded a Binding affinity of 136 RU.
Molecule KWLYRR [6mer-2-126] returned a Binding affinity (RU) in assay [1] of 148 RU.
Consider RQYQRR [6mer-2-11], for which the Binding affinity in assay [2] was 121 RU.
On the same count and under the same terms, the same measure for KLLSKR [6mer-2-42]: 126 RU.
Same read-out and setting: the same measure for RSLTKK [6mer-2-45]: 121 RU.
As to KLQSRR [6mer-2-47], the Binding affinity in assay [2] came out at 148 RU.
On the same count and under the same terms, under KSLQKK [6mer-2-8] stands 135 RU; under KVLSRK [6mer-2-28], 142 RU.
For the molecule KSYYRR [6mer-2-128], the Binding affinity (RU) in assay [1] was 147 RU.
KQQTKR [6mer-2-131] gave a Binding affinity (RU) in assay [1] of 148 RU.
Molecule RWVRKK [6mer-2-23] yielded a Binding affinity in assay [2] of 148 RU.
Take KWQLKR [6mer-2-124]: in assay [1], the Binding affinity (RU) was determined as 126 RU.
The same measure, in the same setting: the same measure for KRVYRK [6mer-2-121]: 137 RU.
As to RQFRKK [6mer-2-33], the Binding affinity in assay [2] is 142 RU.
Turning to RSQSKR [6mer-2-50], the Binding affinity in assay [2] was determined as 125 RU.
Turning to KQLCKR [6mer-2-41], in assay [2], the Binding affinity turned out to be 142 RU.
In turn, RSYYRR [6mer-2-4] returned a Binding affinity in assay [2] of 125 RU.

The values are drawn from US20250011363A1, “OPTIMIZED SHORTENED PEPTIDE THAT BINDS TO ACETYLCHOLINE RECEPTOR, AND USE THEREOF” (SKINMED CO., LTD., priority 2021, published 2025).
